The text below walks through data of patent publication US20170137783A1.

This test addresses mesothelin-Fc fusion protein, immobilized on beads (UniProt Q13421). Put plainly: cell-based or functional assay.
Chain of UniProt Q13421 (Q13421 other isoform, or with tags, fused parts or gaps limits assumed): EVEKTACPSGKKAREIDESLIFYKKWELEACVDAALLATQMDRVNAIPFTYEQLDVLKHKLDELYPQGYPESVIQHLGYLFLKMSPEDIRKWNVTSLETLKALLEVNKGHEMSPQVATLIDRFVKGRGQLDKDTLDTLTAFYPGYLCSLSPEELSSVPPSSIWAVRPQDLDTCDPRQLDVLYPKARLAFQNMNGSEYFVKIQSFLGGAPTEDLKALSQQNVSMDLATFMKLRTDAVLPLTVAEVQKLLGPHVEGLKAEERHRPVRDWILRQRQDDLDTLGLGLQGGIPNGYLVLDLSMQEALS

Turning to “mesothelin-specific BBz CAR (SS1 scFv, 4-1BB and CD3z signaling domains) (receptor)”, the Total Population Doublings (donor 1) (population doublings) is 8.8, the Total Population Doublings (donor 2) (population doublings) was found to be 8.4 and the Total Population Doublings (donor 3) (population doublings) stood at 8.4.
In the case of “mesothelin-specific 28z CAR (SS1 scFv, CD28 and CD3z signaling domains) (receptor)”, the Total Population Doublings (donor 1) (population doublings) amounted to 5.8, the Total Population Doublings (donor 2) (population doublings) came out at 6.9 and the Total Population Doublings (donor 3) (population doublings) turned out to be 6.
